± gives the uncertainty stated by the source.
B1: 3'-5' exoribonuclease 1, residues 65 to 114; numbered along this chain, Q8IV48 (parent)
chain: VYKEIAITNGCINRMSKEELRAKLSEFKLETRGVKDVLKKRLKNYYKKQK

Variants of: B1
Assay: abundance fitness (aPCA) (normalised: wild type 0, dead -1); higher = more abundant; growth selection in yeast, the domain comes from the species named
Conditions: Homo sapiens

Point of comparison: VYKEIAITNGCINRMSKPELRAKLSEFKLETRGVKDVLKKRLKNYYKKQK [E18P], abundance fitness -0.008 ± 0.045. Against it:
- VYKEIAITNGCINRMSKYELRAKLSEFKLETRGVKDVLKKRLKNYYKKQK [E18Y] — lower, -0.179 ± 0.054
- VYKEIAITNGCINRMSKKELRAKLSEFKLETRGVKDVLKKRLKNYYKKQK [E18K] — within error, 0.058 ± 0.059
- VYKEIAITNGCINRMSKMELRAKLSEFKLETRGVKDVLKKRLKNYYKKQK [E18M] — within error, 0.012 ± 0.055
- VYKEIAITNGCINRMSKFELRAKLSEFKLETRGVKDVLKKRLKNYYKKQK [E18F] — within error, -0.007 ± 0.063
- VYKEIAITNGCINRMSKDELRAKLSEFKLETRGVKDVLKKRLKNYYKKQK [E18D] — within error, -0.034 ± 0.047
- VYKEIAITNGCINRMSKGELRAKLSEFKLETRGVKDVLKKRLKNYYKKQK [E18G] — within error, -0.023 ± 0.035
- VYKEIAITNGCINRMSKAELRAKLSEFKLETRGVKDVLKKRLKNYYKKQK [E18A] — higher, 0.079 ± 0.039
- VYKEIAITNGCINRMSKLELRAKLSEFKLETRGVKDVLKKRLKNYYKKQK [E18L] — within error, -0.025 ± 0.039
- VYKEIAITNGCINRMSKVELRAKLSEFKLETRGVKDVLKKRLKNYYKKQK [E18V] — within error, 0.058 ± 0.037
- VYKEIAITNGCINRMSKIELRAKLSEFKLETRGVKDVLKKRLKNYYKKQK [E18I] — within error, -0.003 ± 0.062
- VYKEIAITNGCINRMSKRELRAKLSEFKLETRGVKDVLKKRLKNYYKKQK [E18R] — within error, 0.04 ± 0.037
- VYKEIAITNGCINRMSKSELRAKLSEFKLETRGVKDVLKKRLKNYYKKQK [E18S] — within error, 0.038 ± 0.039
- VYKEIAITNGCINRMSKHELRAKLSEFKLETRGVKDVLKKRLKNYYKKQK [E18H] — within error, -0.043 ± 0.062
- VYKEIAITNGCINRMSKNELRAKLSEFKLETRGVKDVLKKRLKNYYKKQK [E18N] — within error, 0.047 ± 0.06
- VYKEIAITNGCINRMSKQELRAKLSEFKLETRGVKDVLKKRLKNYYKKQK [E18Q] — within error, 0.075 ± 0.064
- VYKEIAITNGCINRMSKCELRAKLSEFKLETRGVKDVLKKRLKNYYKKQK [E18C] — within error, 0.072 ± 0.047
- VYKEIAITNGCINRMSKWELRAKLSEFKLETRGVKDVLKKRLKNYYKKQK [E18W] — lower, -0.131 ± 0.049
- VYKEIAITNGCINRMSKEELIAKLSEFKLETRGVKDVLKKRLKNYYKKQK [R21I] — lower, -0.226 ± 0.073
- VYKEIAITNGCINRMSKEELEAKLSEFKLETRGVKDVLKKRLKNYYKKQK [R21E] — lower, -0.841 ± 0.058
- VYKEIAITNGCINRMSKEELFAKLSEFKLETRGVKDVLKKRLKNYYKKQK [R21F] — lower, -0.688 ± 0.062
- VYKEIAITNGCINRMSKEELLAKLSEFKLETRGVKDVLKKRLKNYYKKQK [R21L] — lower, -0.528 ± 0.039
- VYKEIAITNGCINRMSKEELQAKLSEFKLETRGVKDVLKKRLKNYYKKQK [R21Q] — lower, -0.221 ± 0.052
- VYKEIAITNGCINRMSKEELVAKLSEFKLETRGVKDVLKKRLKNYYKKQK [R21V] — lower, -0.203 ± 0.038
- VYKEIAITNGCINRMSKEELCAKLSEFKLETRGVKDVLKKRLKNYYKKQK [R21C] — lower, -0.474 ± 0.049
- VYKEIAITNGCINRMSKEELTAKLSEFKLETRGVKDVLKKRLKNYYKKQK [R21T] — lower, -0.473 ± 0.051
- VYKEIAITNGCINRMSKEELPAKLSEFKLETRGVKDVLKKRLKNYYKKQK [R21P] — lower, -0.697 ± 0.071
- VYKEIAITNGCINRMSKEELNAKLSEFKLETRGVKDVLKKRLKNYYKKQK [R21N] — lower, -0.787 ± 0.069
- VYKEIAITNGCINRMSKEELDAKLSEFKLETRGVKDVLKKRLKNYYKKQK [R21D] — lower, -0.844 ± 0.073
- VYKEIAITNGCINRMSKEELGAKLSEFKLETRGVKDVLKKRLKNYYKKQK [R21G] — lower, -0.804 ± 0.039
- VYKEIAITNGCINRMSKEELMAKLSEFKLETRGVKDVLKKRLKNYYKKQK [R21M] — lower, -0.449 ± 0.053
- VYKEIAITNGCINRMSKEELWAKLSEFKLETRGVKDVLKKRLKNYYKKQK [R21W] — lower, -0.833 ± 0.051
- VYKEIAITNGCINRMSKEELYAKLSEFKLETRGVKDVLKKRLKNYYKKQK [R21Y] — lower, -0.773 ± 0.075
- VYKEIAITNGCINRMSKEELHAKLSEFKLETRGVKDVLKKRLKNYYKKQK [R21H] — lower, -0.644 ± 0.075
- VYKEIAITNGCINRMSKEELSAKLSEFKLETRGVKDVLKKRLKNYYKKQK [R21S] — lower, -0.518 ± 0.043
- VYKEIAITNGCINRMSQEELRAKLSEFKLETRGVKDVLKKRLKNYYKKQK [K17Q] — lower, -0.664 ± 0.13
- VYKEIAITNGCINRMSSEELRAKLSEFKLETRGVKDVLKKRLKNYYKKQK [K17S] — lower, -0.34 ± 0.051
- VYKEIAITNGCINRMSNEELRAKLSEFKLETRGVKDVLKKRLKNYYKKQK [K17N] — lower, -0.378 ± 0.063
- VYKEIAITNGCINRMSVEELRAKLSEFKLETRGVKDVLKKRLKNYYKKQK [K17V] — lower, -0.152 ± 0.061
- VYKEIAITNGCINRMSDEELRAKLSEFKLETRGVKDVLKKRLKNYYKKQK [K17D] — lower, -0.759 ± 0.12
- VYKEIAITNGCINRMSGEELRAKLSEFKLETRGVKDVLKKRLKNYYKKQK [K17G] — lower, -0.603 ± 0.094
- VYKEIAITNGCINRMSCEELRAKLSEFKLETRGVKDVLKKRLKNYYKKQK [K17C] — within error, -0.113 ± 0.086
- VYKEIAITNGCINRMSWEELRAKLSEFKLETRGVKDVLKKRLKNYYKKQK [K17W] — lower, -0.871 ± 0.17
- VYKEIAITNGCINRMSFEELRAKLSEFKLETRGVKDVLKKRLKNYYKKQK [K17F] — lower, -0.646 ± 0.058
- VYKEIAITNGCINRMSREELRAKLSEFKLETRGVKDVLKKRLKNYYKKQK [K17R] — lower, -0.203 ± 0.07
- VYKEIAITNGCINRMSTEELRAKLSEFKLETRGVKDVLKKRLKNYYKKQK [K17T] — lower, -0.366 ± 0.056
- VYKEIAITNGCINRMSEEELRAKLSEFKLETRGVKDVLKKRLKNYYKKQK [K17E] — lower, -0.518 ± 0.13
- VYKEIAITNGCINRMSAEELRAKLSEFKLETRGVKDVLKKRLKNYYKKQK [K17A] — lower, -0.209 ± 0.076
- VYKEIAITNGCINRMSLEELRAKLSEFKLETRGVKDVLKKRLKNYYKKQK [K17L] — lower, -0.592 ± 0.058
- VYKEIAITNGCINRMSYEELRAKLSEFKLETRGVKDVLKKRLKNYYKKQK [K17Y] — lower, -0.651 ± 0.087
- VYKEIAITNGCINRMSIEELRAKLSEFKLETRGVKDVLKKRLKNYYKKQK [K17I] — lower, -0.329 ± 0.057
- VYKEIAITNGCINRMSHEELRAKLSEFKLETRGVKDVLKKRLKNYYKKQK [K17H] — lower, -0.591 ± 0.083

From the Human Domainome abundance scans (Beltran et al. 2025)
